The RNAGym collection of RNA variant scans (doi:10.7554/elife.90254)

B1: LINE1-mini (parent)
chain: GGCAGAGCUCAACACAGCGUGGCAAAGUGGCUGUGGCUAGACUGCC

Variants of: B1
Test: self-cleavage, relative activity (ratio to wild type); higher = more cleavage; in vitro, sequencing; the parent is a self-cleaving ribozyme

Variant | self-cleavage
A12U G30C | 0.46
A12U G30A | 0.48
A12U G30U | 0.58
A12C U32G | 0.06
A12C U32A | 0.03
A12C U32C | 0.05
C13A A16G | 0.03
C13A A16C | 0.08
C13A A16U | 0.09
A12U U32C | 0.07
A12U U32G | 0.08
A12U U32A | 0.04
A12G C45A | 0.1
A12G C45G | 0.06
A12G C45U | 0.05
A12G C31A | 0.16
A12G C31G | 0.04
A12G C31U | 0.05
A12G U38C | 0.04
A12G U38G | 0.02
A12G U38A | 0.06
C13A A39G | 0.15
C13A A39U | 0.23
C13A A39C | 0.17

Variant | self-cleavage
A12U G44A | 0.22
A12U G44C | 0.17
A12U G44U | 0.11
A12G C15U | 0.03
A12G C15A | 0.02
A12G C15G | 0.03
C13A A14U | 0.12
C13A A14G | 0.08
C13A A14C | 0.08
C13A C46G | 0.06
C13A C46U | 0.08
C13A C46A | 0.07
A12C G19U | 0.03
A12C G19C | 0.02
A12C G19A | 0.02
A12C C23G | 0.02
A12C C23A | 0.02
A12C C23U | 0.08
A12U A16C | 0.05
A12U A16U | 0.07
A12U A16G | 0.16
A12U C45G | 0.08
A12U C45U | 0.27
A12U C45A | 0.38

Variant | self-cleavage
A12U C31U | 0.09
A12U C31A | 0.04
A12U C31G | 0.04
A12C G44U | 0.03
A12C G44C | 0.05
A12C G44A | 0.03
A12U U28A | 0.2
A12U U28C | 0.6
A12U U28G | 0.12
A12G U34A | 0.03
A12G U34G | 0.02
A12G U34C | 0.05
A12U G19U | 0.19
A12U G19A | 0.42
A12U G19C | 0.32
A12G G21A | 0.05
A12G G21C | 0.01
A12G G21U | 0.03
A12G C23A | 0.02
A12G C23G | 0.05
A12G C23U | 0.03
A12G C13G | 0.04
A12G C13U | 0.06
A12G C13A | 0.07

Variant | self-cleavage
A12C U20A | 0.03
A12C U20G | 0.01
A12C U20C | 0.01
A12U A25G | 0.4
A12U A25C | 0.22
A12U A25U | 0.25
A12G G30A | 0.03
A12G G30C | 0.08
A12G G30U | 0.04
A12U G29U | 0.37
A12U G29A | 0.31
A12U G29C | 0.05
C13A A26U | 0.11
C13A A26C | 0.18
C13A A26G | 0.12
A12C C31G | 0.01
A12C C31U | 0.02
A12C C31A | 0.03
C13A G21U | 0.23
C13A G21A | 0.23
C13A G21C | 0.14
A12U G36U | 0.16
A12U G36C | 0.04
A12U G36A | 0.04

Variant | self-cleavage
A12U C18G | 0.17
A12U C18A | 0.18
A12U C18U | 0.53
A12G G44A | 0.04
A12G G44C | 0.03
A12G G44U | 0.09
A12U A14G | 0.18
A12U A14C | 0.05
A12U A14U | 0.18
A12C U43A | 0.03
A12C U43G | 0.01
A12C U43C | 0.01
A12C G35U | 0.03
A12C G35C | 0.03
A12C G35A | 0.04
A12C G36U | 0.03
A12C G36A | 0.2
A12C G36C | 0.02
A12G G40U | 0.06
A12G G40A | 0.06
A12G G40C | 0.1
A12G G29C | 0.02
A12G G29U | 0.02
A12G G29A | 0.03

Variant | self-cleavage
A12C G33C | 0.01
A12C G33U | 0.02
A12C G33A | 0.05
A12C G30A | 0.03
A12C G30U | 0.01
A12C G30C | 0.04
A12U C13U | 0.14
A12U C13A | 0.21
A12U C13G | 0.48
A12C G21A | 0.02
A12C G21U | 0.03
A12C G21C | 0.03
A12G C46A | 0.31
A12G C46G | 0.05
A12G C46U | 0.03
C13A G19A | 0.15
C13A G19C | 0.06
C13A G19U | 0.09
A12G C42G | 0.02
A12G C42U | 0.07
A12G C42A | 0.05
C13A C23G | 0.13
C13A C23U | 0.16
C13A C23A | 0.16

Variant | self-cleavage
A12C C46A | 0.02
A12C C46G | 0.05
A12C C46U | 0.02
A12G U32A | 0.15
A12G U32G | 0.49
A12G U32C | 0.14
A12G A39C | 0.04
A12G A39U | 0.08
A12G A39G | 0.01
A12C C37G | 0.02
A12C C37U | 0.02
A12C C37A | 0.02
A12U G17U | 0.09
A12U G17A | 0.05
A12U G17C | 0.25
A12G A26C | 0.03
A12G A26U | 0.03
A12G A26G | 0.03
A12G C18U | 0.04
A12G C18A | 0.03
A12G C18G | 0.04
A12C G29C | 0.01
A12C G29A | 0.01
A12C G29U | 0.02

Variant | self-cleavage
A12U U34A | 0.03
A12U U34C | 0.03
A12U U34G | 0.04
A12G C37U | 0.04
A12G C37G | 0.02
A12G C37A | 0.04
A12G G27U | 0.04
A12G G27A | 0.03
A12G G27C | 0.03
A12U G21C | 0.21
A12U G21A | 0.52
A12U G21U | 0.34
A12G U20C | 0.08
A12G U20G | 0.02
A12G U20A | 0.04
A12U A26C | 0.16
A12U A26G | 0.22
A12U A26U | 0.28
C13A C42A | 0.09
C13A C42U | 0.09
C13A C42G | 0.08
A12U G22A | 0.4
A12U G22U | 0.29
A12U G22C | 0.26

Variant | self-cleavage
A12U C42U | 0.13
A12U C42A | 0.06
A12U C42G | 0.04
A12G G19U | 0.02
A12G G19C | 0.02
A12G G19A | 0.17
A12U U20G | 0.09
A12U U20C | 0.25
A12U U20A | 0.12
A12G A24U | 0.03
A12G A24G | 0.03
A12G A24C | 0.02
A12U A41G | 0.09
A12U A41U | 0.18
A12U A41C | 0.04
C13A A25G | 0.1
C13A A25C | 0.06
C13A A25U | 0.11
A12U G40C | 0.06
A12U G40U | 0.17
A12U G40A | 0.21
C13A | 0.15
A12U U43C | 0.14
A12U U43A | 0.04

Variant | self-cleavage
A12U U43G | 0.12
A12G A25G | 0.03
A12G A25C | 0.16
A12G A25U | 0.03
A12C U34A | 0.02
A12C U34G | 0.02
A12C U34C | 0.03
A12U U38G | 0.02
A12U U38C | 0.14
A12U U38A | 0.09
A12U C37U | 0.02
A12U C37A | 0.05
A12U C37G | 0.06
C13A C18A | 0.09
C13A C18G | 0.12
C13A C18U | 0.09
A12C G22C | 0.02
A12C G22A | 0.03
A12C G22U | 0.02
A12G A41C | 0.02
A12G A41G | 0.03
A12G A41U | 0.04
A12C U38C | 0.04
A12C U38A | 0.01

Variant | self-cleavage
A12C U38G | 0.03
A12U G27U | 0.23
A12U G27A | 0.3
A12U G27C | 0.22
A12U C15A | 0.09
A12U C15G | 0.06
A12U C15U | 0.1
A12G G33A | 0.07
A12G G33U | 0.12
A12G G33C | 0.03
A12C C45A | 0.03
A12C C45U | 0.03
A12C C45G | 0.07
C13A G17U | 0.11
C13A G17C | 0.1
C13A G17A | 0.1
C13A C31U | 0.09
C13A C31A | 0.06
C13A C31G | 0.06
C13A A24U | 0.08
C13A A24G | 0.11
C13A A24C | 0.18
A12G G22C | 0.04
A12G G22U | 0.02

Variant | self-cleavage
A12G G22A | 0.03
A12C G17U | 0.02
A12C G17A | 0.01
A12C G17C | 0.02
A12G A16C | 0.06
A12G A16U | 0.05
A12G A16G | 0.03
A12G U43C | 0.03
A12G U43G | 0.1
A12G U43A | 0.12
C13A A41U | 0.14
C13A A41C | 0.06
C13A A41G | 0.12
A12G | 0.04
A12U | 0.28
A12G U28C | 0.02
A12G U28A | 0.04
A12G U28G | 0.01
A12G G35U | 0.04
A12G G35A | 0.02
A12G G35C | 0.05
A12C U28C | 0.02
A12C U28G | 0.02
A12C U28A | 0.02

Variant | self-cleavage
A12C C18U | 0.04
A12C C42G | 0.02
A12C C42A | 0.03
A12C C42U | 0.01
A12G A14C | 0.04
A12G A14G | 0.04
A12G A14U | 0.03
C13A C15U | 0.12
C13A C15G | 0.08
C13A C15A | 0.08
C13A C45U | 0.15
C13A C45G | 0.09
C13A C45A | 0.08
C13A C37U | 0.34
C13A C37G | 0.05
C13A C37A | 0.09
A12U C46U | 0.27
A12U C46A | 0.27
A12U C46G | 0.45
A12U A24G | 0.39
A12U A24U | 0.31
A12U A24C | 0.24
A12U C23G | 0.26
A12U C23A | 0.27

Variant | self-cleavage
A12U C23U | 0.34
A12C G27U | 0.02
A12C G27A | 0.03
A12C G27C | 0.03
A12U A39U | 0.16
A12U A39C | 0.11
A12U A39G | 0.08
A12G G36A | 0.06
A12G G36C | 0.04
A12G G36U | 0.03
A12U G33U | 0.04
A12U G33C | 0.03
A12U G33A | 0.05
A12U G35C | 0.05
A12U G35U | 0.13
A12U G35A | 0.19
A12G G17U | 0.05
A12G G17A | 0.02
A12G G17C | 0.05
A12C G40C | 0.03
A12C G40U | 0.03
A12C G40A | 0.04
